According to patent US20170183403A1 (UNIVERSIT T Z RICH, published 2017):

How the values were obtained:
Assay in all cases: peptide microarray (RepliTope), 15-mers
Reference peptide no. 5 = biological target: T1, Reference peptide no. 5
T1 construct: hIL-2 15-mer, first library, on microarray; also called peptide 5
T1 peptide: QLEHLLLDLQMILNG
Procedure: (§1) Additional incubations are with unrelated antibodies from the same isotype (mouse control IgG2a/lambda and mouse control IgG2a/kappa), and secondary antibodies (anti-mouse IgG (Thermo 84545, label DL650) or anti-mouse IgG (JIR 115-175-072, Label Cy5)) to assess unspecific binding due to the detection antibody. The experiments are performed essentially as described in Maksimov P, et al. 2012, PLoS One 7:e34212. doi:10.1371/journal. pone. 0034212.
(§2) The determination of peptide-antibody binding was performed by RepliTope-analysis where the peptide microarray (triplicate) was incubated with the primary antibody followed by a fluorescently labelled secondary antibody directed against the Fc-part of the primary one. All steps were performed on a TECAN microarray processing station enabling highly reliable and reproducible washing and incubation steps. After performing the incubation steps and subsequent to the final washing steps (to remove the unbound secondary antibodies) the microarrays were dried using a nitrogen stream and scanned in a high resolution microarray scanning system with appropriate wavelength settings. Control incubations were performed with an unrelated antibody having the same isotype to exclude false positive signals.
(§3) The resulting images were analyzed und quantified using spot-recognition software GenePix (Molecular Devices). For each spot, the mean signal intensity was extracted (between 0 and 65535 arbitrary units). For further data evaluation, the MMC2 values were determined. The MMC2 equals the mean value of all three instances on the microarray. Except the coefficient of variation (CV)—standard-deviation divided by the mean value—is larger 0.5, in this case the mean of the two closest values (MC2) is assigned to MMC2.

Reference peptide no. 8 = biological target: T2, Reference peptide no. 8
T2 construct: hIL-2 15-mer, first library, on microarray; also called peptide 8
T2 peptide: QMILNGINNYKNPKL
Procedure: as §1, §2, §3

Reference peptide no. 9 = biological target: T3, Reference peptide no. 9
T3 construct: hIL-2 15-mer, first library, on microarray; also called peptide 9
T3 peptide: LNGINNYKNPKLTRM
Procedure: as §1, §2, §3

Reference peptide no. 12 = biological target: T4, Reference peptide no. 12
T4 construct: hIL-2 15-mer, first library, on microarray; also called peptide 12
T4 peptide: PKLTRMLTFKFYMPK
Procedure: as §1, §2, §3

Reference peptide no. 14 = biological target: T5, Reference peptide no. 14
T5 construct: hIL-2 15-mer, first library, on microarray; also called peptide 14
T5 peptide: LTFKFYMPKKATELK
Procedure: as §1, §2, §3

Reference peptide no. 16 = biological target: T6, Reference peptide no. 16
T6 construct: hIL-2 15-mer, first library, parental Cys replaced by Ser, on microarray; also called peptide 16
T6 peptide: MPKKATELKHLQSLE
Procedure: as §1, §2, §3

Reference peptide no. 17 = biological target: T7, Reference peptide no. 17
T7 construct: hIL-2 15-mer, first library, parental Cys replaced by Ser, on microarray; also called peptide 17
T7 peptide: KATELKHLQSLEEEL
Procedure: as §1, §2, §3

Reference peptide no. 19 = biological target: T8, Reference peptide no. 19
T8 construct: hIL-2 15-mer, first library, parental Cys replaced by Ser, on microarray; also called peptide 19
T8 peptide: HLQSLEEELKPLEEV
Procedure: as §1, §2, §3

Reference peptide no. 25 = biological target: T9, Reference peptide no. 25
T9 construct: hIL-2 15-mer, first library, on microarray; also called peptide 25
T9 peptide: AQSKNFHLRPRDLIS
Procedure: as §1, §2, §3

Reference peptide no. 26 = biological target: T10, Reference peptide no. 26
T10 construct: hIL-2 15-mer, first library, on microarray; also called peptide 26
T10 peptide: KNFHLRPRDLISNIN
Procedure: as §1, §2, §3

Reference peptide no. 31 = biological target: T11, Reference peptide no. 31
T11 construct: hIL-2 15-mer, first library, parental Cys replaced by Ser, on microarray; also called peptide 31
T11 peptide: VIVLELKGSETTFMS
Procedure: as §1, §2, §3

Reference peptide no. 32 = biological target: T12, Reference peptide no. 32
T12 construct: hIL-2 15-mer, first library, parental Cys replaced by Ser, on microarray; also called peptide 32
T12 peptide: LELKGSETTFMSEYA
Procedure: as §1, §2, §3

Reference peptide no. 33 = biological target: T13, Reference peptide no. 33
T13 construct: hIL-2 15-mer, first library, parental Cys replaced by Ser, on microarray; also called peptide 33
T13 peptide: KGSETTFMSEYADET
Procedure: as §1, §2, §3

Reference peptide no. 35 = biological target: T14, Reference peptide no. 35
T14 construct: hIL-2 15-mer, first library, parental Cys replaced by Ser, on microarray; also called peptide 35
T14 peptide: FMSEYADETATIVEF
Procedure: as §1, §2, §3

Reference peptide no. 37 = biological target: T15, Reference peptide no. 37
T15 construct: hIL-2 15-mer, first library, on microarray; also called peptide 37
T15 peptide: DETATIVEFLNRWIT
Procedure: as §1, §2, §3

Reference peptide no. 40 = biological target: T16, Reference peptide no. 40
T16 construct: hIL-2 15-mer, first library, parental Cys replaced by Ser, on microarray; also called peptide 40
T16 peptide: LNRWITFSQSIISTL
Procedure: as §1, §2, §3

Reference peptide no. 41 = biological target: T17, Reference peptide no. 41
T17 construct: hIL-2 15-mer, first library, parental Cys replaced by Ser, on microarray; also called peptide 41
T17 peptide: NRWITFSQSIISTLT
Procedure: as §1, §2, §3

Reference peptide no. 46 = biological target: T18, Reference peptide no. 46
T18 construct: second library: peptide 14 with F(62) to Ala; also called peptide 46
T18 peptide: LTAKFYMPKKATELK
Procedure: as §1, §2, §3

Reference peptide no. 47 = biological target: T19, Reference peptide no. 47
T19 construct: second library: peptide 11 with Y(65) to Ala; also called peptide 47
T19 peptide: YKNPKLTRMLTFKFA
Procedure: as §1, §2, §3

Reference peptide no. 49 = biological target: T20, Reference peptide no. 49
T20 construct: second library: peptide 13 with Y(65) to Ala; also called peptide 49
T20 peptide: TRMLTFKFAMPKKAT
Procedure: as §1, §2, §3

Reference peptide no. 50 = biological target: T21, Reference peptide no. 50
T21 construct: second library: peptide 14 with Y(65) to Ala; also called peptide 50
T21 peptide: LTFKFAMPKKATELK
Procedure: as §1, §2, §3

Reference peptide no. 51 = biological target: T22, Reference peptide no. 51
T22 construct: second library: peptide 15 with Y(65) to Ala; also called peptide 51
T22 peptide: KFAMPKKATELKHLQ
Procedure: as §1, §2, §3

Reference peptide no. 60 = biological target: T23, Reference peptide no. 60
T23 construct: second library: peptide 24 with its first Leu replaced by Ala as printed (by count this is L90, not L92); also called peptide 60
T23 peptide: ANLAQSKNFHLRPRD
Procedure: as §1, §2, §3

- binding result (Reference peptide no. 5): no binding
- binding result (Reference peptide no. 8): no binding
- binding result (Reference peptide no. 9): no binding
- binding result (Reference peptide no. 12): no binding
- binding result (Reference peptide no. 14): no binding
- binding result (Reference peptide no. 16): no binding
- binding result (Reference peptide no. 17): no binding
- binding result (Reference peptide no. 19): no binding
- binding result (Reference peptide no. 25): no binding
- binding result (Reference peptide no. 26): no binding
- binding result (Reference peptide no. 31): no binding
- binding result (Reference peptide no. 32): no binding
- binding result (Reference peptide no. 33): no binding
- binding result (Reference peptide no. 35): no binding
- binding result (Reference peptide no. 37): no binding
- binding result (Reference peptide no. 40): no binding
- binding result (Reference peptide no. 41): no binding
- binding result (Reference peptide no. 46): no binding
- binding result (Reference peptide no. 47): no binding
- binding result (Reference peptide no. 49): no binding
- binding result (Reference peptide no. 50): no binding
- binding result (Reference peptide no. 51): no binding
- binding result (Reference peptide no. 60): no binding
B1: NARA1 (antibody, mouse IgG2a, kappa, V domains shown)
VH: QVQLQQSGAELVRPGTSVKVSCKASGYAFTNYLIEWVKQRPGQGLEWIGVINPGSGGTNYNEKFKGKATLTADKSSSTAYMQLSSLTSDDSAVYFCARWRGDGYYAYFDVWGAGTTVTVSS
VL: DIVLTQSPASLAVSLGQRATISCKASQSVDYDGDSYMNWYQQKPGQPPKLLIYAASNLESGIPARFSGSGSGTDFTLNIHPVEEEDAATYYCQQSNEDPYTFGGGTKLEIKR
notes: Mouse monoclonal from hybridoma; Isotype controls used were mouse IgG2a; also called anti-IL2 (NARA1) antibody; monoclonal antibody NARA1
